Measurements taken from US20240002497A1 (Merck Sharp & Dohme, published 2024).
Numbering of substitutions follows the chain as printed. Names and notes keep the numbering of the source. One block for each binder: values may come before it.

What was measured:
[1] = target: T1, muNav1.7α (murine Nav1.7α) (murine, UniProt Q62205 1-1984); assay: binding FACS; minus = lower activity than reference
T1 construct: HEK Jmp-In cells

[2] = target: T2, huNav157chim14 (human); assay: binding FACS, HEK Flp-In
T2 construct: HEK Flp-In cells; also called huNav157 chimera 14

[3] = target: T3, huNav157chim14-β1-β2-β3 (human); assay: binding FACS, HEK Flp-In
T3 construct: Whole entry; HEK Flp-In cells; also called huNav157 chimera 14-beta1-beta2-beta3

[4] = target: T4, huNav1.7α + β1-β2-β3 (human, UniProt Q15858 1-1988; A5A6L6 19-218; O60939 30-215; Q2KI11 23-215); assay: FACS, CHO Flp-In, competitor 1 µM IRR00092
T4 construct: also called huNav1.7-beta1-beta2-beta3; huNav1.7-β1-β2-β3

[5] = target: T5, rhNav1.7α + β1-β2-β3 (rhesus monkey); assay: FACS, CHO Flp-In, competitor 1 µM IRR00092
T5 construct: also called rhNav1.7-beta1-beta2-beta3; rhNav1.7-β1-β2-β3

[6] = target: T5, rhNav1.7α + β1-β2-β3; assay: FACS, CHO Flp-In, competitor 1 µM F010300703
[7] = target: T4, huNav1.7α + β1-β2-β3; assay: binding FACS, CHO Flp-In, periplasmic extract
[8] = target: T6, huNav1.7α (human, UniProt Q15858 1-1988); assay: further characterization (binding ELISA and FACS)
T6 construct: HEK cells expressing the α subunit alone; also called HEKa; HEK huNav1.7α

[9] = target: T7, huNav1.7α+β1 (human, UniProt Q15858 1-1988; Q07699 19-218); assay: cell-based or functional assay
[10] = target: T6, huNav1.7α; assay: binding FACS, HEKa cells
How it was run: (§1)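 Assessment used purified FLAG3-tagged ISVD incubated on cells for 30 minutes at 4° C in PBS containing 10% FBS and NaN₃, with cells washed between steps. Propidium iodide (1 μg/mL) staining removed dead cells from analysis.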

[11] = target: T7, huNav1.7α+β1; assay: binding FACS, HEKa/β1 cells
How it was run: as §1

[12] = target: T8, huNav1.7α+β1-β2-β3 (human, UniProt Q15858 1-1988; Q07699 19-218; O60939 30-215; Q9NY72 23-215); assay: binding FACS, HEK FlpIn cells
T8 construct: 5N11S variant; also called huNav1.7-beta1-beta2-beta3; huNav1.7α+Navβ1-Navβ2-Navβ3

[13] = target: T9, Navβ3 (human, UniProt Q9NY72 23-215, limits assumed); assay: binding ELISA
T9 construct: also called beta3 subunit

B2: F0103PMP492E09 (bispecific antibody)
chain: EVQLVESGGGLVQPGGSLRLSCAASGSIFNINSMAWYRRAPGKQRELVASSTNGGSTNYADSVKGRFTISRDNAKRVYLQMNSLTPEDTAVYYCRALLQPSIYDISRTYWGQGTLVTVSSGGGGSGGGGSGGGGSGGGGSGGGGSGGGGSGGGGSGGGGSGGGGSGGGGSEVQLVESGGGLVQAGGSLRLSCAASKSILSFAYMRWYRQAPGKQREFVASIAIGGATSYTDSVKGRFTISRDNAKNTVYLQMNSLKPEDTAVYYCSAPAGQYRGQGTLVTVSSAAADYKDHDGDYKDHDIDYKDDDDKGAAHHHHHHKAAGGGGG
notes: crude periplasmic extract; also called F103275B05(N93R)-50GS-F0103492E09 bivalent ISVD
- MFI [2]: 58400 MFI
- MFI [3]: 133000 MFI
- MFI [4]: 104000 MFI
- MFI [5]: 111000 MFI
- MFI [6]: 25200 MFI
- MFI [7]: 40200 MFI

B4: F010301080 (VHH)
VHH: EVQLVESGGGLVQPGGSLRLSCAASGMLFNANTQGWYRQAPGKQRELVAFIFWGGYVTYNDSVKGRFTISRDNAKRTMYLQMNSLKPEDSAIYYCSLSRYLGQGTLVTVSS
notes: also called F0103265A11(S53W, T57V, N58T, V60N)
- IC50 [M], electrophysiology [9]: 1.4e-08 M
- EC50 [10]: 26 nM
- Bmax relative to '535 [11]: 122%
- EC50 [11]: 3 nM
- EC50 [12]: 5.1 nM

B6: F010301162 (VHH)
VHH: B4 VHH with A31R, W53S, Y56W, V57T, T58N, L101Q
notes: vs F0103265A11: A31R, Y56W, V60N, L103Q
- IC50 [M], electrophysiology [9]: 3.2e-08 M
- Bmax relative to '535 [11]: 115%
- EC50 [11]: 3.8 nM

B7: F010301129 (VHH)
VHH: B4 VHH with W53S, Y56W, V57T, T58N, S96A, L101Q
notes: vs F0103265A11: Y56W, V60N, S93A, L103Q
- IC50 [M], electrophysiology [9]: 1.3e-07 M
- Bmax relative to '535 [11]: 103%
- EC50 [11]: 3.6 nM

B8: F010301090 (VHH)
VHH: B4 VHH with W53S, Y56W, V57T, L101Q
notes: vs F0103265A11: Y56W, N58T, V60N, L103Q
- IC50 [M], electrophysiology [9]: 2.2e-08 M
- Bmax relative to '535 [11]: 102%
- EC50 [11]: 4.8 nM

Now from value to binder:

- EC50 fold change compared to reference [1]: -4 fold
B1: F010301873 (VHH)
VHH: EVQLVESGGGVVQPGGSLRLSCATTSRAFIRDVFTGWYRQVPGKERELVARIYNGGNTNYADFAKGRFTISRDNAKKMVYLQMNSLRPEDTALYYCLFSGTINTGREYRSGDYWGQGTLVTVSS
notes: also called F0103464B09(L11V, R39Q, S68T, T79Y, R81Q, S82aN, N82bS, K83R, G88A, V89L); R39Q

- binding result [8]: no binding
B3: F0103495F09 (VHH)
VHH: EVQLVESGGGLVQAGSSLSLSCAASGRALSTYAMGWFRQAPGKEREFVARISRSGITTYYTDSVKGRFTISRDRAKDTVYLQMNSLKPEDTAIYLCAADASTNPAGYYLRNRYDYWGQGTLVTVSS
notes: also called F103495F09

- IC50 [M], electrophysiology [9]: 6.3e-08 M
- Bmax relative to '535 [11]: 119%
- EC50 [11]: 4.1 nM
B5: F010301191 (VHH)
VHH: B4 VHH with A31R, W53S, Y56W, V57T, T58N, S96A, R99V, L101Q
notes: vs F0103265A11: A31R, Y56W, V60N, S93A, R101V, L103Q

- binding result [13]: no binding
B9: F0103240B04 (VHH)
VHH: EVQLVESGGGLVQAGGSLRLSCAASGGTGRRYAMGWFRQAPGKEREIVAAIRWSAMTYYADDGKGRFTISRDNAKNTVYLQMNSLKPEDTAIYYCAYTWDYFKYDQVRAYRGWGQGTLVTVSS
notes: Purified monovalent protein; also called anti-Navβ2 ISVD F0103240B04
